Numbered stars: 1 amine (or outer) side, 2 acyl side, 3 side chain; on linkers, the order of the positions; unused ones are H or OH. Square brackets hold non-standard residues; d marks the D form. Side chains are listed from the residue outwards. * marks the point of attachment. TTDS = 4-[3-[2-[2-(3-aminopropoxy)ethoxy]ethoxy]propylamino]-4-oxo-butanoyl; γGlu = O=C(O)[C@H](CCC(=O)[*:2])N[*:1]; Stearoyl = CCCCCCCCCCCCCCCCCC(=O)*; Palmitoyl = CCCCCCCCCCCCCCCC(=O)*; αMeK = C[C@](N)(CCCCN)C(=O)O; hLys = NCCCCC[C@H](N)C(=O)O; AEEA = NCCOCCOCC(=O)O; Aib = CC(C)(N)C(=O)O
B1: Relaxin peptide analogue of SEQ ID NO: 24 (peptide)
peptide: Ac-LEGREFVRAK(Ac)I[Aib][Aib]EGK([TTDS-TTDS-TTDS-γGlu-γGlu-γGlu-Palmitoyl])STFS[αMeK]RAK(Ac)-NH2
B2: Relaxin peptide analogue of SEQ ID NO: 13 (peptide)
peptide: Ac-LEGREKVRAK(Ac)I[Aib][Aib]EGK([TTDS-TTDS-TTDS-γGlu-γGlu-γGlu-Palmitoyl])STFSKRAK(Ac)-NH2
B3: Relaxin peptide analogue of SEQ ID NO: 19 (peptide)
peptide: Ac-LEGREKVRAK(Ac)I[Aib][Aib]EGK([AEEA-AEEA-AEEA-γGlu-γGlu-γGlu-Palmitoyl])STWS[Aib]RKK(Ac)-NH2
SMILES: CCCCCCCCCCCCCCCC(=O)N[C@@H](CCC(=O)N[C@@H](CCC(=O)N[C@@H](CCC(=O)NCCOCCOCC(=O)NCCOCCOCC(=O)NCCOCCOCC(=O)NCCCC[C@H](NC(=O)CNC(=O)[C@H](CCC(=O)O)NC(=O)C(C)(C)NC(=O)C(C)(C)NC(=O)[C@@H](NC(=O)[C@H](CCCCNC(C)=O)NC(=O)[C@H](C)NC(=O)[C@H](CCCNC(=N)N)NC(=O)[C@@H](NC(=O)[C@H](CCCCN)NC(=O)[C@H](CCC(=O)O)NC(=O)[C@H](CCCNC(=N)N)NC(=O)CNC(=O)[C@H](CCC(=O)O)NC(=O)[C@H](CC(C)C)NC(C)=O)C(C)C)[C@@H](C)CC)C(=O)N[C@@H](CO)C(=O)N[C@H](C(=O)N[C@@H](Cc1c[nH]c2ccccc12)C(=O)N[C@@H](CO)C(=O)NC(C)(C)C(=O)N[C@@H](CCCNC(=N)N)C(=O)N[C@@H](CCCCN)C(=O)N[C@@H](CCCCNC(C)=O)C(N)=O)[C@@H](C)O)C(=O)O)C(=O)O)C(=O)O
B4: Relaxin peptide analogue of SEQ ID NO: 18 (peptide)
peptide: Ac-LEGREKVRAK(Ac)I[Aib][Aib]EGK([TTDS-TTDS-γGlu-γGlu-γGlu-Palmitoyl])STWS[dK]RKK(Ac)-NH2
B5: Relaxin peptide analogue of SEQ ID NO: 2 (peptide)
peptide: Ac-LEGREKVRAK(Ac)I[Aib][Aib]EGK([TTDS-TTDS-TTDS-γGlu-γGlu-γGlu-Palmitoyl])STFS[Aib]RAK(Ac)-NH2
B6: Relaxin peptide analogue of SEQ ID NO: 22 (peptide)
peptide: LEGREKVRAKIXXEGKSTFSKRAK
modifications: Ac-L-E-G-R-E-K-V-R-A-K(Ac)-I-Aib-Aib-E-G-K(PEG2DGA-PEG2DGA-PEG2DGA-gE-gE-gE-Palm)-S-T-F-S-Mly-R-A-K(Ac)-NH2
B7: Relaxin peptide analogue of SEQ ID NO: 3 (peptide)
peptide: Ac-LEGREKVRAK(Ac)I[Aib][Aib]EGK([TTDS-TTDS-TTDS-γGlu-γGlu-γGlu-Palmitoyl])STFS[αMeK]RAK(Ac)-NH2
B8: Relaxin peptide analogue of SEQ ID NO: 15 (peptide)
peptide: Ac-LEGREKVRAK(Ac)I[Aib][Aib]EGK([TTDS-TTDS-TTDS-γGlu-γGlu-γGlu-Palmitoyl])STF[Aib]KRAK(Ac)-NH2
B9: Relaxin peptide analogue of SEQ ID NO: 30 (peptide)
peptide: Ac-LEGREKVRAK(Ac)I[Aib][Aib]EGK([TTDS-TTDS-TTDS-γGlu-γGlu-γGlu-Stearoyl])STWS[αMeK]RAK(Ac)-NH2
B10: Relaxin peptide analogue of SEQ ID NO: 26 (peptide)
peptide: Ac-LEGREKVRAK(Ac)I[Aib][Aib]EGK([AEEA-AEEA-AEEA-AEEA-γGlu-γGlu-γGlu-Stearoyl])STFS[αMeK]RAK(Ac)-NH2
SMILES: CCCCCCCCCCCCCCCCCC(=O)N[C@@H](CCC(=O)N[C@@H](CCC(=O)N[C@@H](CCC(=O)NCCOCCOCC(=O)NCCOCCOCC(=O)NCCOCCOCC(=O)NCCOCCOCC(=O)NCCCC[C@H](NC(=O)CNC(=O)[C@H](CCC(=O)O)NC(=O)C(C)(C)NC(=O)C(C)(C)NC(=O)[C@@H](NC(=O)[C@H](CCCCNC(C)=O)NC(=O)[C@H](C)NC(=O)[C@H](CCCNC(=N)N)NC(=O)[C@@H](NC(=O)[C@H](CCCCN)NC(=O)[C@H](CCC(=O)O)NC(=O)[C@H](CCCNC(=N)N)NC(=O)CNC(=O)[C@H](CCC(=O)O)NC(=O)[C@H](CC(C)C)NC(C)=O)C(C)C)[C@@H](C)CC)C(=O)N[C@@H](CO)C(=O)N[C@H](C(=O)N[C@@H](Cc1ccccc1)C(=O)N[C@@H](CO)C(=O)N[C@@](C)(CCCCN)C(=O)N[C@@H](CCCNC(=N)N)C(=O)N[C@@H](C)C(=O)N[C@@H](CCCCNC(C)=O)C(N)=O)[C@@H](C)O)C(=O)O)C(=O)O)C(=O)O
B11: Relaxin peptide analogue of SEQ ID NO: 20 (peptide)
peptide: Ac-LEGREKVRAK(Ac)I[Aib][Aib]EGK([TTDS-TTDS-TTDS-γGlu-γGlu-γGlu-Stearoyl])STWS[Aib]RKK(Ac)-NH2
B12: Relaxin peptide analogue of SEQ ID NO: 28 (peptide)
peptide: Ac-LEGRE[hLys]VRAK(Ac)I[Aib][Aib]EGK([TTDS-TTDS-TTDS-γGlu-γGlu-γGlu-Palmitoyl])STFS[αMeK]RAK(Ac)-NH2
B13: Relaxin peptide analogue of SEQ ID NO: 31 (peptide)
peptide: Ac-LEGRERVRAK(Ac)I[Aib][Aib]EGK([TTDS-TTDS-TTDS-γGlu-γGlu-γGlu-Palmitoyl])STWS[Aib]RRK(Ac)-NH2
B14: Relaxin peptide analogue of SEQ ID NO: 29 (peptide)
peptide: Ac-LEGREKVR[Aib]K(Ac)I[Aib][Aib]EGK([TTDS-TTDS-TTDS-γGlu-γGlu-γGlu-Palmitoyl])STFS[αMeK]RAK(Ac)-NH2
B15: Relaxin peptide analogue of SEQ ID NO: 16 (peptide)
peptide: Ac-LEGREKVRAK(Ac)I[Aib][Aib]EGK([TTDS-TTDS-γGlu-γGlu-γGlu-Palmitoyl])STFS[dK]RAK(Ac)-NH2
B16: Relaxin peptide analogue of SEQ ID NO: 21 (peptide)
peptide: Ac-LEGREKVRAK(Ac)I[Aib][Aib]EGK([AEEA-AEEA-AEEA-AEEA-γGlu-γGlu-γGlu-Stearoyl])STWS[Aib]RKK(Ac)-NH2
SMILES: CCCCCCCCCCCCCCCCCC(=O)N[C@@H](CCC(=O)N[C@@H](CCC(=O)N[C@@H](CCC(=O)NCCOCCOCC(=O)NCCOCCOCC(=O)NCCOCCOCC(=O)NCCOCCOCC(=O)NCCCC[C@H](NC(=O)CNC(=O)[C@H](CCC(=O)O)NC(=O)C(C)(C)NC(=O)C(C)(C)NC(=O)[C@@H](NC(=O)[C@H](CCCCNC(C)=O)NC(=O)[C@H](C)NC(=O)[C@H](CCCNC(=N)N)NC(=O)[C@@H](NC(=O)[C@H](CCCCN)NC(=O)[C@H](CCC(=O)O)NC(=O)[C@H](CCCNC(=N)N)NC(=O)CNC(=O)[C@H](CCC(=O)O)NC(=O)[C@H](CC(C)C)NC(C)=O)C(C)C)[C@@H](C)CC)C(=O)N[C@@H](CO)C(=O)N[C@H](C(=O)N[C@@H](Cc1c[nH]c2ccccc12)C(=O)N[C@@H](CO)C(=O)NC(C)(C)C(=O)N[C@@H](CCCNC(=N)N)C(=O)N[C@@H](CCCCN)C(=O)N[C@@H](CCCCNC(C)=O)C(N)=O)[C@@H](C)O)C(=O)O)C(=O)O)C(=O)O
B17: Relaxin peptide analogue of SEQ ID NO: 23 (peptide)
peptide: Ac-LEGRELVRAK(Ac)I[Aib][Aib]EGK([TTDS-TTDS-TTDS-γGlu-γGlu-γGlu-Palmitoyl])STFS[αMeK]RAK(Ac)-NH2
B18: Relaxin peptide analogue of SEQ ID NO: 27 (peptide)
peptide: Ac-LEGRERVRAK(Ac)I[Aib][Aib]EGK([TTDS-TTDS-TTDS-γGlu-γGlu-γGlu-Palmitoyl])STFS[αMeK]RAK(Ac)-NH2
B19: Relaxin peptide analogue of SEQ ID NO: 17 (peptide)
peptide: Ac-LEGREKVRAK(Ac)I[Aib][Aib]EGK([TTDS-TTDS-γGlu-γGlu-γGlu-Palmitoyl])STWS[dK]RAK(Ac)-NH2
B20: Relaxin peptide analogue of SEQ ID NO: 25 (peptide)
peptide: Ac-LEGREQVRAK(Ac)I[Aib][Aib]EGK([TTDS-TTDS-TTDS-γGlu-γGlu-γGlu-Palmitoyl])STFS[αMeK]RAK(Ac)-NH2
B21: Relaxin peptide analogue of SEQ ID NO: 32 (peptide)
peptide: LEGREKVRAKIXXEGKSTFSKRAK
modifications: Ac-L-E-G-R-E-K-V-R-A-K(Ac)-I-Aib-Aib-E-G-K(PEG2DGA-PEG2DGA-PEG2DGA-gE-gE-gE-Stea)-S-T-F-S-Mly-R-A-K(Ac)-NH2
B22: Relaxin peptide analogue of SEQ ID NO: 14 (peptide)
peptide: Ac-LEGREKVRAK(Ac)I[Aib][Aib]EGK([TTDS-TTDS-TTDS-γGlu-γGlu-γGlu-Palmitoyl])STF[dS]KRAK(Ac)-NH2

Target: T1, human RXFP1 (human, UniProt Q9HBX9 1-757)
T1 sequence (looked up): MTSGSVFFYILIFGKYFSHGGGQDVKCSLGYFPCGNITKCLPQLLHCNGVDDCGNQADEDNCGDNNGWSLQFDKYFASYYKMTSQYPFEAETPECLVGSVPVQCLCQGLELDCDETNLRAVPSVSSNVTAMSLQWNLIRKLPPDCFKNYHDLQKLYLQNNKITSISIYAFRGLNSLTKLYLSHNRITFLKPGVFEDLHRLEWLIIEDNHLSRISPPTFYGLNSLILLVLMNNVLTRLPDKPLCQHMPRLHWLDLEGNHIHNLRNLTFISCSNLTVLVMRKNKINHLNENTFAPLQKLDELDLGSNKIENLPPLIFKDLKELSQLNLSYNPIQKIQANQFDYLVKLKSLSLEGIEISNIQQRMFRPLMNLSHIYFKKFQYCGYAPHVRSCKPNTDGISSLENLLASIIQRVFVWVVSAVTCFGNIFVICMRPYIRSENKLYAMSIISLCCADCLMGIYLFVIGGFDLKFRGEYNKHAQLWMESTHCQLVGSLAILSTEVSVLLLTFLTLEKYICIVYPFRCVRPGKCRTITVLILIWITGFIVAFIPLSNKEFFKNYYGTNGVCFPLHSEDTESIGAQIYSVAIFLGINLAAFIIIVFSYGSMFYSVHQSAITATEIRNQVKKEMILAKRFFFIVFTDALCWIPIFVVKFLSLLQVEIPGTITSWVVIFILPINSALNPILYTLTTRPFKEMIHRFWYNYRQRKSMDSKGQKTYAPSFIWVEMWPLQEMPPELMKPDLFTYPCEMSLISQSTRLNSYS
Assay: cell-based or functional assay

| Binder | EC50 (nM), OVCAR 5 cells (cAMP) [nM] | EMax, OVCAR 5 cells (cAMP) [%] |
| --- | --- | --- |
| B1 | 36.4 | 100 |
| B2 | 2.12 | 91 |
| B3 | 11.5 | 94 |
| B4 | 1.54 | 92 |
| B5 | 2.4 | 99 |
| B6 | 1 | 92 |
| B7 | 0.34 | 97 |
| B8 | 2.1 | 85 |
| B9 | 0.21 | 89 |
| B10 | 0.43 | 96 |
| B11 | 0.15 | 96 |
| B12 | 0.62 | 88 |
| B13 | 0.19 | 94 |
| B14 | 1.6 | 88 |
| B15 | 6.8 | 88 |
| B16 | 0.65 | 93 |
| B17 | 11.1 | 92 |
| B18 | 1.8 | 98 |
| B19 | 4.6 | 91 |
| B20 | 28.7 | 100 |
| B21 | 0.1 | 97 |
| B22 | 3.2 | 90 |
